Literature values, collected in patent publication US5763478A, “Triterpene derivatives with immunosuppressant activity” (Merck & Co., Inc., priority 1996, dated 1998).

Target: T1, KV 1.3 channels (CHO cells transfected with KV 1.3) (Homo sapiens, UniProt P22001)
T1 construct: expressed in transfected cells; host or cells: CHO cells
Details: reference blocker used at saturating concentration to set the efflux window

T1 sequence (P22001 53-575 limits assumed): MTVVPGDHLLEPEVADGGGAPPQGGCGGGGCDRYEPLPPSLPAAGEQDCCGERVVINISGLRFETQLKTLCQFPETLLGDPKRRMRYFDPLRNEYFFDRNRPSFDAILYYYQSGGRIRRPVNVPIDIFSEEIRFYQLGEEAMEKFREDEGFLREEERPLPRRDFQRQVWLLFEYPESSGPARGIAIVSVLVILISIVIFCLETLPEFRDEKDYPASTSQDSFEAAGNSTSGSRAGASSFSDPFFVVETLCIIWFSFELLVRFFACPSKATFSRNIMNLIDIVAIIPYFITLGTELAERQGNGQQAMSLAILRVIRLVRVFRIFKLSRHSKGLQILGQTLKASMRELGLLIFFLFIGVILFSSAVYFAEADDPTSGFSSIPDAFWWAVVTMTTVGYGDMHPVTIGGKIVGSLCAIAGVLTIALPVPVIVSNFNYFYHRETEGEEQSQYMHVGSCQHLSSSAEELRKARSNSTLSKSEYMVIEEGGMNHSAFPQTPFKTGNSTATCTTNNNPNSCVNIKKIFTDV

margatoxin (TIINVKCTSPKQCLPPCKAQFGQSAGAKCMNGKCKCYPH; UniProt P40755 1-39, looked up)
IC50: 0.1 nM
